In test [1] the target is HLA-A*02:01. The test can be described thus: IEDB peptide-MHC binding, cellular MHC/competitive/fluorescence; ≥ and ≤ were set here for values at or beyond the usual limits of such assays. The settings on record: source organism: Homo sapiens.
Test [2] has as its target HLA-B*57:01. The test can be described thus: IEDB peptide-MHC binding, purified MHC/competitive/fluorescence; filed as Kd, often an IC50 or EC50 that approximates it; ≥ and ≤ were set here for values at or beyond the usual limits of such assays. The settings on record: source organism: Vibrio vulnificus CMCP6.
In test [3] the target is HLA-A*02:01. The test is described as above. The conditions noted are these: source organism: Vibrio vulnificus CMCP6.
For test [4], the target named is HLA-A*11:01. The description is as above. The conditions noted are these: source organism: Vibrio vulnificus CMCP6.
The next test addresses HLA-A*02:03. The description is as above. The conditions noted are these: source organism: Vibrio vulnificus CMCP6.
In test [5] the target is HLA-B*15:17. Described as above. The conditions noted are these: source organism: Vibrio vulnificus CMCP6.
The target in the next test is HLA-A*02:06. The test is described as above. The settings on record: source organism: Vibrio vulnificus CMCP6.
Test [6] has as its target HLA-B*15:01. The test is described as above.
The target in test [7] is HLA-B*08:01. The test can be described thus: IEDB peptide-MHC binding, purified MHC/direct/fluorescence; filed as Kd, often an IC50 or EC50 that approximates it; ≥ and ≤ were set here for values at or beyond the usual limits of such assays. The conditions noted are these: source organism: Vibrio vulnificus CMCP6.
Another test deals with HLA-C*12:03. The description is as above.
A further test deals with HLA-A*26:02. The test is described as above. The settings on record: source organism: Vibrio vulnificus CMCP6.
A further test deals with HLA-B*46:01. Described as above.
Another test deals with HLA-B*38:01. The test is described as above.
The target of a further test is HLA-B*08:02. Described as above. The settings on record: source organism: Vibrio vulnificus CMCP6.
The target in the next test is HLA-B*40:01. Described as above.
The target in another test is HLA-A*31:01. The description is as above.
The target of another test is HLA-B*15:09. Described as above. The settings on record: source organism: Vibrio vulnificus CMCP6.
The next test deals with HLA-B*48:01. Described as above.
The next test deals with HLA-A*26:03. The test is described as above. The conditions noted are these: source organism: Vibrio vulnificus CMCP6.
The next test deals with HLA-B*27:05. The test is described as above.
A further test addresses HLA-A*69:01. The test is described as above.
A further test addresses HLA-A*01:01. The test is described as above.
Another test has as its target HLA-B*58:01. The description is as above.
For test [8], the target named is HLA-B*08:01. The experiment in a line: IEDB peptide-MHC binding, purified MHC/competitive/fluorescence; filed as Kd, often an IC50 or EC50 that approximates it; ≥ and ≤ were set here for values at or beyond the usual limits of such assays. The conditions noted are these: source organism: Vibrio cholerae V52.
The next test has as its target HLA-A*30:01. The test is described as above. The settings on record: source organism: Vibrio cholerae V52.
The target of another test is HLA-A*03:01. The test can be described thus: IEDB peptide-MHC binding, purified MHC/direct/fluorescence; filed as Kd, often an IC50 or EC50 that approximates it; ≥ and ≤ were set here for values at or beyond the usual limits of such assays. The conditions noted are these: source organism: Vibrio cholerae.
The target of test [9] is HLA-B*57:01. The test is described as above. The settings on record: source organism: Vibrio cholerae.
Test [10] has as its target HLA-A*02:01. The description is as above. The conditions noted are these: source organism: Vibrio cholerae.
The target in test [11] is HLA-A*11:01. Described as above. The conditions noted are these: source organism: Vibrio cholerae.
In another test the target is HLA-A*26:01. The description is as above. The conditions noted are these: source organism: Vibrio cholerae V52.
For another test, the target named is HLA-B*51:01. Described as above. The settings on record: source organism: Vibrio cholerae.
In another test the target is HLA-B*07:02. Described as above. The conditions noted are these: source organism: Vibrio cholerae.
In test [12] the target is HLA-B*15:17. Described as above. The settings on record: source organism: Vibrio cholerae.
The target in test [13] is HLA-B*15:01. The description is as above. The conditions noted are these: source organism: Vibrio cholerae.
The next test deals with HLA-B*39:01. Described as above. The settings on record: source organism: Vibrio cholerae V52.
The next test addresses HLA-B*18:01. The description is as above. The settings on record: source organism: Vibrio cholerae.
The next test addresses HLA-B*35:01. The experiment in a line: IEDB peptide-MHC binding, purified MHC/competitive/fluorescence; filed as Kd, often an IC50 or EC50 that approximates it; ≥ and ≤ were set here for values at or beyond the usual limits of such assays.
The target in another test is HLA-C*14:02. The description is as above. The conditions noted are these: source organism: Gorilla gorilla.
The target of the next test is HLA-B*45:06. The test is described as above. The settings on record: source organism: Gorilla gorilla.
The next test concerns the target HLA-B*15:42. Described as above. The settings on record: source organism: Gorilla gorilla.
The target in another test is HLA-B*83:01. The description is as above. The settings on record: source organism: Gorilla gorilla.
The mark [14] stands for this setting: source organism: Vibrio vulnificus CMCP6.
Where [15] appears, read: source organism: Vibrio vulnificus.
Setting [16] is: source organism: Vibrio cholerae.
The mark [17] stands for this setting: source organism: Bacillus anthracis str. A0488.
Setting [18] is: source organism: Desulfitobacterium hafniense DCB-2.

In general, IC50 refers to the concentration that gives 50% inhibition. Consider SLSEKTVLL, for which the IC50 with HLA-A*02:01 [1] came out at 21 µM.

A word on the Kd: it is a measure of binding affinity in units of concentration. On to VTFFCVMTY, for which the Kd in the test with HLA-B*57:01 [2] was 1.75 µM; in the test with HLA-A*02:01 [3], 2.1 µM; in the test with HLA-A*11:01 [4] it was 0.225 µM; in the test with HLA-A*02:03, no less than 20 µM; with HLA-B*15:17 [5], 0.0151 µM; with HLA-A*02:06, 0.478 µM. The dissociation constant (Kd) with HLA-B*15:01 [6] (setting [14]) was 2.23 µM; with HLA-B*08:01 [7], no less than 20 µM; in the test with HLA-C*12:03 (setting [14]), 0.043 µM; with HLA-A*26:02, 1.78 µM; with HLA-B*46:01 (setting [15]), no less than 20 µM; with HLA-B*38:01 (setting [14]) it was no less than 20 µM. Also, the Kd with HLA-B*08:02, with HLA-B*40:01 (setting [15]), with HLA-A*31:01 (setting [15]), in the test with HLA-B*15:09, with HLA-B*48:01 (setting [15]) and with HLA-A*26:03 was no less than 20 µM each time. The Kd is no less than 20 µM in the test with HLA-B*27:05 (setting [15]), no less than 20 µM in the test with HLA-A*69:01 (setting [15]), 0.993 µM in the test with HLA-A*01:01 (setting [15]) and 0.111 µM in the test with HLA-B*58:01 (setting [14]).

On to IVKQGRDAL, for which the Kd with HLA-B*08:01 [8] is 1.46 µM; with HLA-A*30:01 it was no less than 20 µM; in the test with HLA-A*03:01, no less than 20 µM; with HLA-B*57:01 [9], no less than 20 µM; with HLA-B*46:01 (setting [16]), no less than 20 µM; with HLA-A*02:01 [10] it was no less than 20 µM. Further, the Kd in the test with HLA-B*38:01 (source organism: Vibrio cholerae V52), with HLA-B*40:01 (setting [16]), with HLA-A*11:01 [11], in the test with HLA-A*31:01 (setting [16]), in the test with HLA-A*26:01 and in the test with HLA-B*51:01 was no less than 20 µM throughout. The dissociation constant Kd in the test with HLA-B*07:02 is 0.226 µM; in the test with HLA-B*15:17 [12], no less than 20 µM; in the test with HLA-B*48:01 (setting [16]), no less than 20 µM; with HLA-B*15:01 [13], 1.34 µM; with HLA-B*39:01, no less than 20 µM; in the test with HLA-B*27:05 (setting [16]) it was no less than 20 µM. The Kd in the test with HLA-A*69:01 (setting [16]), with HLA-A*01:01 (setting [16]), with HLA-B*58:01 (setting [16]) and in the test with HLA-B*18:01 was no less than 20 µM throughout.

As to WCMQHLPSY, the values for the dissociation constant (Kd) with HLA-B*15:01 [6] (setting [17]) and with HLA-B*35:01 (setting [17]) were 0.102 µM and 0.004 µM, respectively.

VMAPRTLVL: in the test with HLA-A*02:01 [1], the IC50 came out at 10.5 µM. For the same sequence, the Kd with HLA-C*14:02 is 0.0772 µM; in the test with HLA-B*45:06, no less than 5 µM; with HLA-B*15:42 it was no less than 5 µM; with HLA-B*83:01, no less than 5 µM; with HLA-C*12:03 (source organism: Gorilla gorilla) it was 2.28 µM.

With FAGDLYRMY, the figures for the Kd in the test with HLA-B*15:01 [6] (setting [18]) and with HLA-B*35:01 (setting [18]) were 0.806 µM and 0.0071 µM, respectively.

These data come from the Immune Epitope Database (IEDB).
